Reference: paper PMC6327041 (Nature Communications, 2019)

Target: T1, KDM5A1-797 (Homo sapiens, UniProt P29375)
T1 construct: KDM5A1-797 was cloned into a pFASTBAC HTA vector; His (N, cleaved yes); made in house; host or cells: Sf21 insect cells (baculovirus)
T1 sequence (P29375 1-797): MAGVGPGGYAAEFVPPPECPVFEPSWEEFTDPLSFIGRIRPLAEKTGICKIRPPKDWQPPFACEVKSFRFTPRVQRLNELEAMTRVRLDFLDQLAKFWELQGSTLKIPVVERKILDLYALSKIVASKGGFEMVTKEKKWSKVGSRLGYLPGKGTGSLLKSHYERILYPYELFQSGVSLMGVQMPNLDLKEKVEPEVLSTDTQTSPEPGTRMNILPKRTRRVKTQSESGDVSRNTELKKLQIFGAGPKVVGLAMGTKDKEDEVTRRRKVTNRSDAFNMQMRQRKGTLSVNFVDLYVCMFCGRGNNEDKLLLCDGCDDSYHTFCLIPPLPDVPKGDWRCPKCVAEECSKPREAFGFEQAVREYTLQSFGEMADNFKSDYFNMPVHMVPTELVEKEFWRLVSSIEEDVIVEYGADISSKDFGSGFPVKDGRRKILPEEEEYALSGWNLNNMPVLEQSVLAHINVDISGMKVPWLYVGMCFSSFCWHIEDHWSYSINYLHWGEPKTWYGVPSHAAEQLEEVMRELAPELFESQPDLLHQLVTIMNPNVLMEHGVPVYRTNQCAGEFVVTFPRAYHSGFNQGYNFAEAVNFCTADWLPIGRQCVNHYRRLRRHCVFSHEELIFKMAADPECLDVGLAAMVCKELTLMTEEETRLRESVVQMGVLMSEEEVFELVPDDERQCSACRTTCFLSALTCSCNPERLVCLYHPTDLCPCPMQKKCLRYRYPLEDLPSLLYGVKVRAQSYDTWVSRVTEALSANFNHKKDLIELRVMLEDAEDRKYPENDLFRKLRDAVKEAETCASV
Assay: HDX-MS of KDM5A with peptides
Procedure: Solution-phase amide HDX experiments were carried out with a fully automated system (CTC HTS PAL, LEAP Technologies, Carrboro, NC; housed inside a 4 °C cabinet).
Peptides were identified using tandem MS (MS^2 or MS/MS) experiments performed with a LTQ linear ion trap mass spectrometer (LTQ Orbitrap XL with ETD, Thermo Fisher, San Jose, CA) over a 70 min gradient. Product ion spectra were acquired in a data-dependent mode and the five most abundant ions were selected for the product ion analysis per scan event. The MS/MS *.raw data files were converted to *.mgf files and then submitted to MASCOT ver2.3 (Matrix Science, London, UK) for peptide identification. […]
For differential HDX experiments, 5 μl of 20 μM KDM5A1-797 was diluted to 25 μl with D2O-containing HDX buffer (40 mM HEPES, 50 mM KCl, pH 7.9) and incubated at 4 °C for 10, 30, 60, 900, and 3600 s. […] Percent deuterium exchange values for peptide isotopic envelopes at each time point were calculated and processed using HDX Workbench. […] The intensity weighted mean m/z centroid value of each peptide envelope was calculated and subsequently converted into a percentage of deuterium incorporation. Statistical significance for the differential HDX data is determined by an unpaired t-test for each time point, a procedure that is integrated into the HDX Workbench software. […]

| Substance | perturbation of deuterium uptake (Ac-H3K4me3 21mer alone (500 µM) vs apo, 4 °C, triplicate) | deuterium exchange of PHD1 residues Gly300-Ala342, both peptides (H3 10mer (100 µM) and Ac-H3K4me3 21mer (500 µM) both present vs apo) |
| --- | --- | --- |
| Ac-H3K4me3 21mer: N-terminally acetylated 21mer H3K4me3 peptide, catalytic domain substrate | no perturbations are observed | – |
| H3: unmodified N-terminal H3 tail 10mer peptide (H3 Ala1-Ser10), PHD1 effector ligand | – | increased protection observed in the PHD1 domain |
